The values that follow are results of earlier work, collected in publication PMC8395526.

pKd: −log10 of the molar value.

By pKd is commonly meant the negative decadic logarithm of the Kd, by convention in mol/L.

The data set deals with erbB2 (Homo sapiens) (UniProt P04626). Nature of the data set: SPR. A general note: Surface plasmon resonance follows binding to a sensor surface in real time, without labels.

Consider “erbB2-SbdIV subdomain IV (from UniProt P04626)”, for which the pKd was 5.72.
